Results: paper PMC6925194

B1: ASCT2 (Alanine, Serine, Cysteine Transporter 2; SLC1A5): N163H (protein)
parent chain: MVADPPRDSKGLAAAEPTANGGLALASIEDQGAAAGGYCGSRDQVRRCLRANLLVLLTVVAVVAGVALGLGVSGAGGALALGPERLSAFVFPGELLLRLLRMIILPLVVCSLIGGAASLDPGALGRLGAWALLFFLVTTLLASALGVGLALALQPGAASAAINASVGAAGSAENAPSKEVLDSFLDLARNIFPSNLVSAAFRSYSTTYEERNITGTRVKVPVGQEVEGMNILGLVVFAIVFGVALRKLGPEGELLIRFFNSFNEATMVLVSWIMWYAPVGIMFLVAGKIVEMEDVGLLFARLGKYILCCLLGHAIHGLLVLPLIYFLFTRKNPYRFLWGIVTPLATAFGTSSSSATLPLMMKCVEENNGVAKHISRFILPIGATVNMDGAALFQCVAAVFIAQLSQQSLDFVKIITILVTATASSVGAAGIPAGGVLTLAIILEAVNLPVDHISLILAVDWLVDRSCTVLNVEGDALGAGLLQNYVDRTESRSTEPELIQVKSELPLDPLPVPTEEGNPLLKHYRGPAGDATVASEKESVM
B2: ASCT2 (Alanine, Serine, Cysteine Transporter 2; SLC1A5): N163H/N212H (protein)
parent chain: B1 parent chain
B3: ASCT2 (Alanine, Serine, Cysteine Transporter 2; SLC1A5): N212H (protein)
parent chain: B1 parent chain

Assay: CHO co-transfection, flow cytometry fusion index
Conditions: glycan lost; control: wild-type ASCT2

Protein | other: SYN1-induced cell-cell fusion
B1 | no change
B2 | no change
B3 | no change
